From US7524503B2, “Human cytomegalovirus (HCMV) cytotoxic T cell epitopes, polyepitopes compositions comprising same and diagnostic and prophylactic and therapeutic uses therefor” (priority 2001, dated 2009)

Target: T1, HLA A2 (Homo sapiens, UniProt P04439, D140Y/D185E/D98H/E176V/E277Q/G131W/G231S/I119V/I121R/I166T/I218V/L300P/L318F/N151K/N90K/P208A/P217A/Q86G/Q94H/R138H/R169H/T345S)
T1 construct: endogenous in cells; host or cells: T2 cells
Type: cell-based
Conditions: HLA A2 on T2 cells; relative increase in HLA expression vs no peptide at 26° C.

| Sequence | MSE (MHC stabilization efficiency) |
| --- | --- |
| LMQKFPKQV (human cytomegalovirus IE2 CTL epitope peptide) | + (+ = 51-99%) |
| NILQKIEKI (human cytomegalovirus pp150 CTL epitope peptide) | + (+ = 51-99%) |
| NLALSTPFL (human cytomegalovirus IE2 CTL epitope peptide) | ++ (++ = 100-199%) |
| NLFPYLVSA (human cytomegalovirus gB CTL epitope peptide) | ++ (++ = 100-199%) |
| PLIPTTAVI (human cytomegalovirus pp150 CTL epitope peptide) | − (− = 0-50%) |
| PLREYLADL (human cytomegalovirus pp28 CTL epitope peptide) | − (− = 0-50%) |
| QLLIPKSFTL (human cytomegalovirus pp71 CTL epitope peptide) | − (− = 0-50%) |
| QLRSVIRAL (human cytomegalovirus pp50 CTL epitope peptide) | − (− = 0-50%) |
| QMLLALARL (human cytomegalovirus gB CTL epitope peptide) | + (+ = 51-99%) |
| QMWQARLTV | + (+ = 51-99%) |
| RIEENLEGV (human cytomegalovirus pp150 CTL epitope peptide) | + (+ = 51-99%) |
| SAIIGIYLL (human cytomegalovirus gH CTL epitope peptide) | − (− = 0-50%) |
| SLVRLVYIL (human cytomegalovirus gH CTL epitope peptide) | + (+ = 51-99%) |
| TLLVYLFSL (human cytomegalovirus US3 CTL epitope peptide) | ++ (++ = 100-199%) |
| TLTEDFFVV (human cytomegalovirus gH CTL epitope peptide) | ++ (++ = 100-199%) |
| TLVIPSWHV (human cytomegalovirus pp71 CTL epitope peptide) | ++ (++ = 100-199%) |
| TMWCLTLFV (human cytomegalovirus UL18 CTL epitope peptide) | ++ (++ = 100-199%) |
| TMYGGISLL (human cytomegalovirus IE1 CTL epitope peptide) | ++ (++ = 100-199%) |
| VIGDQYVKV [reference compound] | ++ (++ = 100-199%) |
| YINRALAQI (human cytomegalovirus gB CTL epitope peptide) | ++ (++ = 100-199%) |
| YLLYRMLKT (human cytomegalovirus gH CTL epitope peptide) | − (− = 0-50%) |
| YLMDELRYV (human cytomegalovirus gH CTL epitope peptide) | ++ (++ = 100-199%) |
| YLTVFTVYL (human cytomegalovirus gH CTL epitope peptide) | ++ (++ = 100-199%) |
